The values that follow come from patent US9248217B2, “Nanoparticle coating of surfaces” (Nanocopocia, LLC, priority 2006, dated 2016).

A short description of data set [1]: HPLC retention time of eluted peptide before and after ElectroNanospray (structural integrity). It is filed as physicochemical. The note with it: sprayed in aqueous solution onto stents and stainless steel plates. The procedure: General HPLC methods to quantify dexamethasone (DXM) and three peptides (luteinizing hormone releasing hormone (human; LHRH), angiotensin I, and insulin chain B) were developed using an HP 1090 system equipped with a narrowbore column (Zorbax SB C-18, 2.1 mm i.d.×150 mm, 3.5 μm) and UV detector. Data integration and processing were performed with Agilent ChemStation software (Rev. A.08.03). Peak areas were obtained by subtracting the baseline (from a “blank” injection of the sample matrix) from the experimental chromatogram. DXM was analyzed with the following method: 20/80 to 100/0 to 20/80 acetonitrile/water in 3 min and 3.01 min at 0.6 mL/min, end run at 6 min; 65° C.; 10 μL injection volume. DXM, which was detected at 243 nm, eluted at 2.27 min. The calibration curve for DXM (obtained from Alexis Biochemicals) generated with seven standard concentrations ranging from 0.5 to 30 μg/ml in acetonitrile was adequately linear (R^2=0.9999) and the limit of quantification (LOQ) was 0.5 μg/ml. The peptides (all obtained from Sigma-Aldrich) were analyzed with the following method: 20/80 to 50/50 to 20/80 acetonitrile/water buffered with 0.1% (v/v) perchloric acid in 5 min and 5.01 min at 0.4 mL/min, end run at 9 min; 65° C.; 10 μL injection volume; 210 nm detection wavelength. The retention of the peptides was measured before and after the ElectroNanospray process described earlier. LHRH eluted at 2.61 min, angiotensin I eluted at 3.54 min, and insulin B chain eluted at 4.71 min. Calibration curves for the peptides were obtained using five standard concentrations ranging from 1.25 to 50 μg/ml in a solution of 10 mM perchloric acid in water. The LOD for LHRH, angiotensin I and insulin chain B were 0.19, 0.25 and 0.34 μg/ml, respectively. System suitability and injection reproducibility tests were satisfactory.
We identified and sourced three readily available peptides of varying chain length, LHRH, angiotensin I, and insulin B chain. These were sprayed in aqueous solution onto both stents and stainless steel plates. […]

The nature of data set [2]: SEM imaging of drug particles on hydrogel. It is filed as physicochemical. The conditions noted are these: SEM at 20,000x magnification. The method, then:
For initial feasibility spray examples, griseofulvin (0.09023 g), a poorly water soluble antifungal agent, was dissolved in a mixture of ethanol (9 ml) and acetone (6 ml). A hydrogel sample, approximately 5 mm in largest diameter, removed from a borate buffer solution and placed on a metallic spray platform beneath the ElectroNanospray device's dual capillary spray head. The solution was sprayed in the cone jet mode at 4.17 kV at 5 μl/min and a distance of 15.6 mm from the hydrogel. Spray time was 20 minutes. The surface pattern seen in the SEM image shown in FIGS. 39A and 39B show a uniform, closely packed surface of approximately 200 nm particles at 20,000× magnification.

Take “angiotensin I (DRVYIHPFHL; Angiotensin-1; UniProt P01019 25-34, looked up) [model peptide obtained from Sigma-Aldrich]”: the “HPLC retention time after spraying compared to before spraying” value in data set [1] is “unchanged”.
On the same count and under the same terms, the result for “Luteinizing hormone releasing hormone [LHRH]” reads “unchanged”.
For the compound `COC1=CC(=O)C[C@@H](C)[C@]12Oc1c(Cl)c(OC)cc(OC)c1C2=O` [griseofulvin], in data set [2], the “particle size on hydrogel surface” value is listed as “approximately 200 nm”.
With insulin B chain, the “HPLC retention time after spraying compared to before spraying” value in data set [1] is given as “unchanged”.
